{
  "source": "patent US20220228157A1",
  "about": "“GENE EDITING IN DIVERSE BACTERIA” (priority 2019, published 2022)",
  "molecules": {"B1": {"name": "codon-optimized version of Redβ: Redβ expressed from the codon-optimized gene included in Broad SSAP Library (protein, UniProt P03698 1-261, looked up)", "Recombination protein bet": "MSTALATLAGKLAERVGMDSVDPQELITTLRQTAFKGDASDAQFIALLIVANQYGLNPWTKEIYAFPDKQNGIVPVVGVDGWSRIINENQQFDGMDFEQDNESCTCRIYRKDRNHPICVTEWMDECRREPFKTREGREITGPWQSHPKRMLRHKAMIQCARLAFGFAGIYDKDEAERIVENTAYTAERQPERDITPVNDETMQEINTLLIALDKTWDDDLLPLCSQIFRRDIRASSELTQAEAVKALGFLKQKAAEQKVAA", "modifications": "expressed from codon-optimized gene", "notes": "Redβ expressed from the codon-optimized gene included in Broad SSAP Library"}, "B2": {"name": "SSAP SEQ ID NO: 143/SSB SEQ ID NO: 310: co-expressed SSAP/SSB pair (protein, listed as Helicobacter pullorum)", "chain 1": "MAENEKQALLQEENKSENVVSTVKRTALATNPFSDTDQFNNIFKMAQLISQSDMIPATYKGKPMNCVIALEQANRMGVSPLMVMQNLYVVKGVPSWSGQGCMMIIQGCGKFRDVDYVYSGEKGTDSRSCKVVATRISDGKRIEGTEITMQMVKSEGWISNTKWKNMPEQMLGYRAATFFARMYCPNELNGFATEGEAEDMNHKPQRIEAINVLGDTAHE", "chain 2": "MFNKVILVGNLTRDVELRYLPSGAALARLNLATNRRYKKQDGTQAEEVCFIDVNLFGRTAEVANQYLKKGSQVLIEGRLVLESWTDNTGAKRTKHSITAESMQMLGQRQSTQEENHDYGAGDYNNYQEYEKPAYTASAAPKAQPVQKEPELPVIDINDDEIPF", "modifications": "Clostridium sp FS41", "notes": "co-expressed SSAP/SSB pair"}},
  "key": {"[1]": {"target": "E. coli single-stranded binding protein (EcSSB) (E. coli) (UniProt P0AGE0)", "assay": "cell-based or functional assay", "details": "scale: fold improved over the RecT protein alone"}, "[2]": {"target": "EcSSBΔ9 (EcSSB with a 9-amino-acid C-terminal deletion) (E. coli) (UniProt P0AGE0)", "assay": "cell-based or functional assay"}, "[3]": {"target": "L. lactis single-stranded binding protein (LlSSB) (L. lactis) (UniProt Q9CDM9)", "assay": "cell-based or functional assay"}, "[4]": {"target": "LlSSB C7:EcSSB (L. lactis SSB with its last 7 C-terminal residues replaced by those of EcSSB) (L. lactis) (UniProt Q9CDM9)", "assay": "cell-based or functional assay"}, "[5]": {"target": "LlSSB C8:EcSSB (L. lactis SSB with its last 8 C-terminal residues replaced by those of EcSSB) (L. lactis) (UniProt Q9CDM9)", "assay": "cell-based or functional assay"}, "[6]": {"target": "PaSSB (Pseudomonas aeruginosa single-stranded binding protein) (Pseudomonas aeruginosa) (UniProt P40947)", "assay": "cell-based or functional assay"}, "E. coli": {"system": "E. coli", "assay": "Editing efficiency by NGS, non-coding mismatch at a non-essential gene", "assay_type": "cell-based, Escherichia coli", "details": "versus Redβ expressed off wild-type codons", "experimental": "Top-performing SSAPs and SSAP/SSB pairs from experiments in E. coli, L. lactis, and M. smegmatis are shown in FIG. 2A, FIG. 2B and FIG. 2C, respectively. Bars in red are the proteins that had previously been reported in the literature. The proteins listed were found after ten rounds of selection for protein variants that enabled the introduction of an oligonucleotide that conferred a genomic edit that provided antibiotic resistance. Unbiased editing efficiency was tested in each case by introducing a non-coding base change at a non-essential gene and measuring the frequency of incorporation via next generation sequencing.\nTheir recombineering efficiency was tested against Redβ expressed off of its wild-type codons on the same plasmid system used for the SEER selections. […]\nThe efficiency of each SSAP or SSAP/SSB pair was measured by expressing them off of their host-specific plasmid in the naïve parent strain and running a recombineering cycle with an oligo that confers a 4-nucleotide non-coding mismatch in a non-essential gene. The allele was then amplified by PCR and editing efficiency was measured by next-generation sequencing.\nTo measure single locus editing, a recombineering cycle was run with an oligo that confers a single base pair non-coding mismatch in a non-essential gene. The allele was then amplified by PCR and editing efficiency was measured by NGS as described above. […]"}, "[7]": {"system": "Agrobacterium tumefaciens", "assay": "Oligo-recombineering efficiency of SSAP/SSB library members", "assay_type": "cell-based", "details": "A. tumefaciens, after two rounds of selection", "experimental": "A library of the most broadly-acting three (3) SSAPs and twenty five (25) SSBs was cloned into an Agrobacterium tumefaciens (A. tumefaciens) vector (75-member library). The library was selected for efficient genome editing, and oligo-recombineering. Efficiency was measured from the two most frequent members of the library after two rounds of selection. Editing efficiency of close to 1% was measured in SSAP SEQ ID NO: 143/SSB SEQ ID NO: 310. […] A. tumefaciens is quite distantly related to E. coli, L. lactis, and M. smegmatis (FIG. 7)."}},
  "data": [
    {"molecule": "Redβ single-stranded annealing protein (SSAP) from Enterobacteria phage λ (from UniProt P03698 1-261)", "values": [
      {"measurement": "editing efficiency in L. lactis, pair against the RecT protein alone", "setting": "[1]", "result": 483},
      {"measurement": "genome editing efficiency in L. lactis (fold lower than Redβ with EcSSB)", "setting": "[2]", "result": 44},
      {"measurement": "genome editing efficiency in L. lactis (fold less than Redβ with EcSSB)", "setting": "[3]", "result": 38.5},
      {"measurement": "editing rate in L. lactis (fold of Redβ with EcSSB)", "setting": "[4]", "result": 5.9},
      {"measurement": "editing rate in L. lactis (fold of Redβ with EcSSB)", "setting": "[5]", "result": 2.6},
      {"measurement": "editing efficiency in C. crescentus (fold over Redβ alone)", "setting": "[6]", "result": 15},
      {"measurement": "editing efficiency in C. crescentus after expression optimization and evasion of mismatch repair (fold higher than Redβ alone)", "setting": "[6]", "result": 112},
      {"measurement": "editing efficiency in C. crescentus after expression optimization and evasion of mismatch repair (fold over the background level)", "setting": "[6]", "result": 873}
    ]},
    {"molecule": "B1", "values": [
      {"measurement": "Effect of codon usage on editing efficiency", "setting": "E. coli", "result": "significantly decreased efficiency"}
    ]},
    {"molecule": "B2", "values": [
      {"measurement": "Editing efficiency", "setting": "[7]", "result": "~1", "unit": "%"}
    ]}
  ]
}
